Reference: article PMC9482650, “Quantitative fragmentomics allow affinity mapping of interactomes” (Nature Communications, 2022)

T1: ARHGAP21, Q5T5U3
T1 sequence (Q5T5U3 45-169, limits assumed, looked up): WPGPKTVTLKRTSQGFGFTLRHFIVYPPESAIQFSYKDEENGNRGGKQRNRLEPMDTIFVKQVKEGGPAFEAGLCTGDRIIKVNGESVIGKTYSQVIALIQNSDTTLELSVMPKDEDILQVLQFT

T2: ARHGEF11, O15085
T2 sequence (O15085 42-136, limits assumed, looked up): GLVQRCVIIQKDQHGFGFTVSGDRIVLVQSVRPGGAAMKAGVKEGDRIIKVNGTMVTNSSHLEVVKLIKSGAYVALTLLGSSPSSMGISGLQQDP

T3: HTRA4, P83105
T3 sequence (P83105 378-476, limits assumed, looked up): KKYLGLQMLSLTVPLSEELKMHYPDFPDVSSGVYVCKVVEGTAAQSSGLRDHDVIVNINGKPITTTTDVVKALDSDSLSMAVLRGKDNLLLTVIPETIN

T4: MPP6, Q9NZW5
T4 sequence (Q9NZW5 125-219, limits assumed, looked up): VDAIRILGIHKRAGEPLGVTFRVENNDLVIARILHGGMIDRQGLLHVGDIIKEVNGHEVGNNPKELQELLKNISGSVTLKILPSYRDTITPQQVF

T5: NHERF3_1, Q5T2W1
T5 sequence (Q5T2W1 4-100, limits assumed, looked up): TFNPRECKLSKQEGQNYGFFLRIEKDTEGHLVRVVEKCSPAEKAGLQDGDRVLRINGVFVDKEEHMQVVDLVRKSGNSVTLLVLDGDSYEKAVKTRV

T6: PDZD7_3, Q9H5P4
T6 sequence (Q9H5P4 857-944, limits assumed, looked up): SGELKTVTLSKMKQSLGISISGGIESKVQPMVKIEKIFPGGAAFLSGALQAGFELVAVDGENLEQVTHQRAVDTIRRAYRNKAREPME

T7: PTPN13_1, Q12923
T7 sequence (Q12923 1088-1188, limits assumed, looked up): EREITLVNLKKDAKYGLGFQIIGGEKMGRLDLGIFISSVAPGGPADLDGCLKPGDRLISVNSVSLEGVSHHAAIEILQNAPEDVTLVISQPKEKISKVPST

T8: RADIL, Q96JH8
T8 sequence (Q96JH8 971-1071, limits assumed, looked up): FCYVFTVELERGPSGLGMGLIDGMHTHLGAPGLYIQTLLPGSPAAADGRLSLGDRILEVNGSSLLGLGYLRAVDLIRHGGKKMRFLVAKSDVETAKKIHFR

T9: SIPA1L2, Q9P2F8
T9 sequence (Q9P2F8 945-1036, limits assumed, looked up): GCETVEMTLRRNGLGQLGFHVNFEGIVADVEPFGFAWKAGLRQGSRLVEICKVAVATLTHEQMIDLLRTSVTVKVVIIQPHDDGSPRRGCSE

T10: SNTG1, Q9NSN8
T10 sequence (Q9NSN8 52-150, limits assumed, looked up): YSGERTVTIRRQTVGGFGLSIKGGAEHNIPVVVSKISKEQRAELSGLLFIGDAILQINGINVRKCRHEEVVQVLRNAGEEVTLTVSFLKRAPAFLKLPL

T11: TX1BP3, O14907
T11 sequence (O14907 10-122, limits assumed, looked up): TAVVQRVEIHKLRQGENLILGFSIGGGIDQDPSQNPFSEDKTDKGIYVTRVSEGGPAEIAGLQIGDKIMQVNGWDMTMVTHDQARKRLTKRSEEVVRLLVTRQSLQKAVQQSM


Tests used:
Assay in all cases: holdup assay
Design in all cases: key: below the threshold = too weak to quantify, mostly under pKd 3.1 to 4
AHNAK1, Q09666 = settings: plain residues with an end cap or a label only (N-terminal biotin on a linker: ttds)
ARHGAP21, Q5T5U3 = biological target: T1, ARHGAP21, Q5T5U3
ARHGEF11, O15085 = biological target: T2, ARHGEF11, O15085; settings: plain residues with an end cap or a label only (N-terminal biotin on a linker: ttds)
DLG4_3, P78352 = settings: plain residues with an end cap or a label only (N-terminal biotin on a linker: ttds)
FRMPD2_3, Q68DX3 = settings: plain residues with an end cap or a label only (N-terminal biotin on a linker: ttds)
GRID2IP_1, A4D2P6 = settings: plain residues with an end cap or a label only (N-terminal biotin on a linker: ttds)
GRID2IP_2, A4D2P6 = settings: plain residues with an end cap or a label only (N-terminal biotin on a linker: ttds)
GRIP2_7, Q9C0E4 = settings: plain residues with an end cap or a label only (N-terminal biotin on a linker: ttds)
HTRA4, P83105 = biological target: T3, HTRA4, P83105; settings: plain residues with an end cap or a label only (N-terminal biotin on a linker: ttds)
IL16_1, Q14005 = biological target: IL16_1, Q14005
Inadl_2, Q8NI35 = settings: plain residues with an end cap or a label only (N-terminal biotin on a linker: ttds)
Inadl_4, Q8NI35 = settings: plain residues with an end cap or a label only (N-terminal biotin on a linker: ttds)
LNX1_1, Q8TBB1 = settings: plain residues with an end cap or a label only (N-terminal biotin on a linker: ttds)
MAGI1_2, Q96QZ7 = biological target: MAGI1_2, Q96QZ7
MAGI2_6, Q86UL8 = settings: plain residues with an end cap or a label only (N-terminal biotin on a linker: ttds)
MAGI3_2, Q5TCQ9 = settings: plain residues with an end cap or a label only (N-terminal biotin on a linker: ttds)
MPP6, Q9NZW5 = biological target: T4, MPP6, Q9NZW5; settings: plain residues with an end cap or a label only (N-terminal biotin on a linker: ttds)
NHERF3_1, Q5T2W1 = biological target: T5, NHERF3_1, Q5T2W1
PDZD7_3, Q9H5P4 = biological target: T6, PDZD7_3, Q9H5P4
PTPN13_1, Q12923 = biological target: T7, PTPN13_1, Q12923
PTPN3, P26045 = biological target: PTPN3, P26045
RADIL, Q96JH8 = biological target: T8, RADIL, Q96JH8; settings: plain residues with an end cap or a label only (N-terminal biotin on a linker: ttds)
SIPA1L2, Q9P2F8 = biological target: T9, SIPA1L2, Q9P2F8; settings: plain residues with an end cap or a label only (N-terminal biotin on a linker: ttds)
SNTG1, Q9NSN8 = biological target: T10, SNTG1, Q9NSN8; settings: plain residues with an end cap or a label only (N-terminal biotin on a linker: ttds)
TJP1_2, Q07157 = biological target: TJP1_2, Q07157
TX1BP3, O14907 = biological target: T11, TX1BP3, O14907
[1] = plain residues with an end cap or a label only (N-terminal biotin on a linker: ttds)
[2] = plain residues with an end cap or a label only (N-terminal biotin on a linker: ado-ado)

Sequence of TJP1_2, Q07157 (Q07157 181-274): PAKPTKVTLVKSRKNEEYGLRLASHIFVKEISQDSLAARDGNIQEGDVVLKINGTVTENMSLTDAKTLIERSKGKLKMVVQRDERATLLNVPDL
Sequence of IL16_1, Q14005 (Q14005 210-306): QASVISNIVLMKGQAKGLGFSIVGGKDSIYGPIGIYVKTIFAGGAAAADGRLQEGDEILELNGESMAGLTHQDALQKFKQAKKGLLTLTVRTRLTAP
Sequence of PTPN3, P26045 (P26045 505-587): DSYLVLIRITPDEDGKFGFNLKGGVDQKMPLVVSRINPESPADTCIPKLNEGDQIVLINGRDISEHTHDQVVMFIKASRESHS
Sequence of MAGI1_2, Q96QZ7 (Q96QZ7 456-580): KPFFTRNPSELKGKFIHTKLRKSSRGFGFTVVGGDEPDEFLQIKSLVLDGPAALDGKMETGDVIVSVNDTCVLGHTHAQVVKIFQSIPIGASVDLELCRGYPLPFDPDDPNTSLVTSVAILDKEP
Sequence of FRMPD2_3, Q68DX3 (Q68DX3 1073-1166): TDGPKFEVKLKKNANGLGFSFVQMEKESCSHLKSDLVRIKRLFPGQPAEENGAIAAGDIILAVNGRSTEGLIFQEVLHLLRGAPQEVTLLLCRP
Sequence of Inadl_2, Q8NI35 (Q8NI35 238-335): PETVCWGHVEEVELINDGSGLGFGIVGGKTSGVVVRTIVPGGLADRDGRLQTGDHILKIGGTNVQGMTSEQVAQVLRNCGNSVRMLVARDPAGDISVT
Sequence of GRID2IP_1, A4D2P6 (A4D2P6 1-87): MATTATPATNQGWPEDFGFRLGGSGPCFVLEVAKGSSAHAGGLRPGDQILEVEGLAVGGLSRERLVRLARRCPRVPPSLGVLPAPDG
Sequence of MAGI2_6, Q86UL8 (Q86UL8 1141-1229): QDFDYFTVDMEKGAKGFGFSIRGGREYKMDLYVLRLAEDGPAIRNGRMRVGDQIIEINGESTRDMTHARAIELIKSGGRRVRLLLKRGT
Sequence of AHNAK1, Q09666 (Q09666 4-100): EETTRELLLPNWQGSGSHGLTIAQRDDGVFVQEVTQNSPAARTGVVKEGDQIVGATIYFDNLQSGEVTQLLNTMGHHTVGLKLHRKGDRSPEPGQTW
Sequence of LNX1_1, Q8TBB1 (Q8TBB1 261-371): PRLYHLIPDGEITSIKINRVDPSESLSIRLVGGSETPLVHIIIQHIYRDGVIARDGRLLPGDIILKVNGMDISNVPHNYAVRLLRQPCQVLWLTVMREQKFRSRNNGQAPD
Sequence of DLG4_3, P78352 (P78352 306-403): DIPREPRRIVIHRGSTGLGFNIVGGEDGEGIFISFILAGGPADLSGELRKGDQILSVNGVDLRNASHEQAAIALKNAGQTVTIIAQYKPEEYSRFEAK
Sequence of GRID2IP_2, A4D2P6 (A4D2P6 272-370): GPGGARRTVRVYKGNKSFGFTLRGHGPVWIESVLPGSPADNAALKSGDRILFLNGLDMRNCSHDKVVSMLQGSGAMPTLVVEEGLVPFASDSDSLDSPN
Sequence of MAGI3_2, Q5TCQ9 (Q5TCQ9 398-503): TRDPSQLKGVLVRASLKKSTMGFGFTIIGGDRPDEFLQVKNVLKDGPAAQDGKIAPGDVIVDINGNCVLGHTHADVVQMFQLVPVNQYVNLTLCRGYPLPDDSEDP
Sequence of Inadl_4, Q8NI35 (Q8NI35 547-651): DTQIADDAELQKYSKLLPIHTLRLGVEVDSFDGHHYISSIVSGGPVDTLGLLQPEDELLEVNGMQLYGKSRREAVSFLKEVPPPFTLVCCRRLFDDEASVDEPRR
Sequence of GRIP2_7, Q9C0E4 (Q9C0E4 934-1023): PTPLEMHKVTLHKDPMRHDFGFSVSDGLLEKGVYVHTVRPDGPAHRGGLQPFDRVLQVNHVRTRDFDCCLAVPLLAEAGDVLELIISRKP

| Binder | pKd (AHNAK1, Q09666) | pKd (ARHGAP21, Q5T5U3; [1]) | pKd (ARHGEF11, O15085) | pKd (DLG4_3, P78352) | pKd (FRMPD2_3, Q68DX3) | pKd (GRID2IP_1, A4D2P6) | pKd (GRID2IP_2, A4D2P6) | pKd (GRIP2_7, Q9C0E4) | pKd (HTRA4, P83105) | pKd (IL16_1, Q14005; [1]) | pKd (Inadl_2, Q8NI35) | pKd (Inadl_4, Q8NI35) | pKd (LNX1_1, Q8TBB1) | pKd (MAGI1_2, Q96QZ7; [1]) | pKd (MAGI2_6, Q86UL8) | pKd (MAGI3_2, Q5TCQ9) | pKd (MPP6, Q9NZW5) | pKd (NHERF3_1, Q5T2W1; [1]) | pKd (PDZD7_3, Q9H5P4; [1]) | pKd (PTPN13_1, Q12923; [1]) | also measured |
| --- | --- | --- | --- | --- | --- | --- | --- | --- | --- | --- | --- | --- | --- | --- | --- | --- | --- | --- | --- | --- | --- |
| RSLEEEESQL [GRASP, Q7Z6J2] | 3.93 | 3.83 | 3.78 | 3.75 | 4.08 | below the threshold | 4.33 | below the threshold | below the threshold | below the threshold | below the threshold | 3.83 | below the threshold | below the threshold | below the threshold | 3.81 | 3.53 | 5.27 | 3.98 | 3.63 | pKd (PTPN3, P26045; [1]): 4.83; pKd (RADIL, Q96JH8): 3.53; pKd (SIPA1L2, Q9P2F8): below the threshold; pKd (SNTG1, Q9NSN8): 3.86; pKd (TJP1_2, Q07157; [1]): below the threshold; pKd (TX1BP3, O14907; [1]): 3.84 |
| ERKLSSESQV [LRP4, O75096] | below the threshold | below the threshold | below the threshold | below the threshold | below the threshold | below the threshold | below the threshold | below the threshold | below the threshold | 3.59 | below the threshold | below the threshold | below the threshold | 4.01 | 3.51 | 5.17 | below the threshold | below the threshold | below the threshold | below the threshold | pKd (PTPN3, P26045; [1]): 4.61; pKd (RADIL, Q96JH8): below the threshold; pKd (SIPA1L2, Q9P2F8): below the threshold; pKd (SNTG1, Q9NSN8): 4.37; pKd (TJP1_2, Q07157; [1]): below the threshold; pKd (TX1BP3, O14907; [1]): 4.27 |
| KRPEMTSSSV [MUC3B, MUC3A, Q02505;Q9H195] |  |  |  |  |  |  |  |  |  |  |  |  |  |  |  |  |  |  |  |  | pKd (ARHGAP21, Q5T5U3; [2]): 1.86; pKd (IL16_1, Q14005; [2]): 3.94; pKd (MAGI1_2, Q96QZ7; [2]): below the threshold; pKd (NHERF3_1, Q5T2W1; [2]): 3.85; pKd (PDZD7_3, Q9H5P4; [2]): below the threshold; pKd (PTPN13_1, Q12923; [2]): below the threshold; pKd (PTPN3, P26045; [2]): 4.55; pKd (TJP1_2, Q07157; [2]): below the threshold; pKd (TX1BP3, O14907; [2]): 4.5 |
